We go through eleven sequences from the supplement of paper PMC9170038.

For the series, the system named is K4 kissing-loop RNA reporter. In words: apparent KD of K4 kissing-loop reporter; higher = weaker reporter binding. Conditions: Eterna round: R107. The method, then:
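RNA-MaP round R107: designed RNA switches with theophylline, tryptophan, arginine or FMN aptamers are transcribed on-chip within common flanks. They are titrated with a labelled K4 kissing-loop RNA reporter in RNA-MaP buffer (100 mM Tris pH 7.5, 80 mM KCl, 4 mM MgCl2), without ligand or with the indicated ligand. Median apparent KD per design.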

Where [1] appears, read: input ligand: theophylline 20 uM.
Setting [2] is: input ligand: tryptophan 2.4 mM.
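Also: bound reporter read as fluorescence of individual clusters on recovered sequencing chips by microscopy, with normalized cluster intensities fitted with a binding model.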

Consider “GAAUGGAGUGAUGUUCCAUUAACGAUCCUACGAGGACCGGUACGGCCGCCACUCGUAUUGCAGUGAUGUUGCAACCAGCCGUACU [Exclusion Tryptophan A GF 9]”, for which the “apparent KD of K4 kissing-loop reporter” value turned out to be 0.111 µM (input ligand: FMN 200 uM); 0.113 µM (input ligand: arginine 13.2 mM); 0.114 µM (input ligand: none); 0.111 µM under setting [1]; 0.102 µM under setting [2].

Consider “GACUCAUGUAGAAGGAGCGUCAGAAGCUACAGACAUGAGUGAUGUUCAUGUUAGUUGAUUUGACAGGUAGGUCGCUACAGCAGGA [KL-SSArg B15 #analogue]”, for which the “apparent KD of K4 kissing-loop reporter” value reads like this: (input ligand: FMN 200 uM) 0.28 µM; (input ligand: arginine 13.2 mM) 0.207 µM; (input ligand: none) 0.247 µM; under setting [1], 0.283 µM; under setting [2], 0.229 µM.

For “GACUGGUUAACGAGUGAUGUUCGAUGGGAAGGAGCGCGCAGAAGUGCAGGUAGGUCGCCCUAUAACCAGGAAAUGGCUGGAUUAU [3.)]”, the “apparent KD of K4 kissing-loop reporter” value is, setting by setting: (input ligand: FMN 200 uM) 0.205 µM; (input ligand: arginine 13.2 mM) 0.224 µM; (input ligand: none) 0.205 µM; under setting [1], 0.252 µM; under setting [2], 0.145 µM.

Consider “GAUAUAGUGAUGUUAUAUGGGAAGGAGUUACGAGGACCGGUACGGCCGCCACUCGAAACGAGUGAGGAUUUGGGAGAUUGGGUUU [SSTryptA.R]”, for which the “apparent KD of K4 kissing-loop reporter” value was found to be 0.369 µM (input ligand: FMN 200 uM); 0.386 µM (input ligand: arginine 13.2 mM); 0.376 µM (input ligand: none); 0.488 µM under setting [1]; 0.235 µM under setting [2].

Regarding “GAUCUGAACGAAAGUUCGGAUCAGUCCGAUACCAGUAUGGAUUCAUACCCUUGGCAGCGGAAAUCUGCUAUGGAGUGAUGUUCCA [Theophylline A K4 14]”, the “apparent KD of K4 kissing-loop reporter” value was 0.532 µM (input ligand: FMN 200 uM); 0.328 µM (input ligand: arginine 13.2 mM); 0.379 µM (input ligand: none); 0.418 µM under setting [1]; 0.391 µM under setting [2].

As to “GAUGAACUAUUCGAUACCAGACUACAUGAGUGAUGUUCAUGUGUGUCAAUGUCUAUGUCAGUCCCUUGGCAGCGAAUAGUUUAUC [KL-XTheo-B27]”, the “apparent KD of K4 kissing-loop reporter” value runs as follows: (input ligand: FMN 200 uM) 0.146 µM; (input ligand: arginine 13.2 mM) 0.108 µM; (input ligand: none) 0.125 µM; under setting [1], 0.141 µM; under setting [2], 0.125 µM.

Regarding “GAUUCAGUGAUGUUGGAAGGCGAGCGGGAUACCAGCCAAGACUCAGGCCCUUGGCAGCCCACAUAUCCCACGUAGAUAGUAGCUC [Same State - Theophylline A (Freestyle 13)]”, the “apparent KD of K4 kissing-loop reporter” value was found to be 0.23 µM (input ligand: FMN 200 uM); 0.104 µM (input ligand: arginine 13.2 mM); 0.147 µM (input ligand: none); 0.134 µM under setting [1]; 0.142 µM under setting [2].

Turning to “GAUUCAGUGAUGUUGGAAGGCGAGCGGGAUACCAGCCAAGACUCAGGCCCUUGGCAGCCCACAUAUCCCAGGUAGAUAGUAGCUC [Same State - Theophylline A (Freestyle 12)]”, the “apparent KD of K4 kissing-loop reporter” value came to 0.168 µM (input ligand: FMN 200 uM); 0.111 µM (input ligand: arginine 13.2 mM); 0.142 µM (input ligand: none); 0.146 µM under setting [1]; 0.132 µM under setting [2].

Take “GCAGACACGCAGUGAUGUUGCGAAACGGAAGGAGCGCGUGAAAACGCAGGUAGGUCGCCGACACAUUAAUUAUAAUUUUGUUUGC [Arginine A K4 15]”: the “apparent KD of K4 kissing-loop reporter” value reads like this: (input ligand: FMN 200 uM) 0.279 µM; (input ligand: arginine 13.2 mM) 0.241 µM; (input ligand: none) 0.27 µM; under setting [1], 0.274 µM; under setting [2], 0.2 µM.

For the sequence “GCAGGACGAGGAGGAGGAUGAAUUACUGAAGGAGCGCAUAUUGUUGCAGGUAGGUCGCGGUAAACAAGUAUAGUGAUGUUAUAUC [SSArgA.O]”, the “apparent KD of K4 kissing-loop reporter” value is 0.77 µM (input ligand: FMN 200 uM); 0.27 µM (input ligand: arginine 13.2 mM); 0.877 µM (input ligand: none); 0.695 µM under setting [1]; 0.416 µM under setting [2].

In the case of “GCAGGACGAGGAGGAGGAUGAAUUACUGAAGGAGCGCAUAUUUUUGCAGGUAGGUCGCGGUAAACAAGUAUAGUGAUGUUAUAUC [SSArgA.N]”, the “apparent KD of K4 kissing-loop reporter” value reads like this: (input ligand: FMN 200 uM) 0.445 µM; (input ligand: arginine 13.2 mM) 0.234 µM; (input ligand: none) 0.372 µM; under setting [1], 0.459 µM; under setting [2], 0.443 µM.
